Measured values from patent US20050113284A1 (published 2005).

B1: MERMUC bait protein C260ΔC53 (amino acids 244-450 of SEQ ID NO: 10) fused to GAL4-DB (other, not shown: small tags and cut ends)
chain: VKASSTSDPPALPDSTEAKPHITEVTASAETLSTAGTTESAAPHATVGTPLPTNSATEREVTAPGATTLSGALVTVSRNPLEETSALSVETPSYVKVSGAAPVSIEAGSAVGKTTSFAGSSASSYSPSEAALKNFTPSETPTMDIATKGPFPTSRDPLPSVPPTTTNSSRGTNSTLAKITTSAKTTMKPPTATPTTARTRPTTDVSA
notes: also called C260A53; C260AC53
B2: c-Met prey protein G (amino acids 993-1043 of SEQ ID NO: 4) fused to GAL4-AD (other, not shown: large carriers)
chain: RRLLQPEYCPDPLYEVMLKCWHPKAEMRPSFSELVSRISAIFSTFIGEHYV
notes: also called prey DNA G
B3: prey clone No. 3-312: C-terminal 89 amino acids of the human c-Met β chain fused to GAL4-AD (other, not shown: large carriers)
chain: LLQPEYCPDPLYEVMLKCWHPKAEMRPSFSELVSRISAIFSTFIGEHYVHVNATYVNVKCVAPYPSLLSSEDNADDEVDTRPASFWETS
B4: prey clone No. 2-22: C-terminal 93 amino acids of human MERMUC fused to GAL4-AD (other, not shown: large carriers)
chain: SSRGTNSTLAKITTSAKTTMKPPTATPTTARTRPTTDVSAGENGGFLLLRLSVASPEDLTDPRVAERLMQQLHRELHAHAPHFQVSLLRVRRG
B5: c-Met prey protein B (amino acids 1013-1083 of SEQ ID NO: 4) fused to GAL4-AD (other, not shown: large carriers)
chain: WHPKAEMRPSFSELVSRISAIFSTFIGEHYVHVNATYVNVKCVAPYPSLLSSEDNADDEVDTRPASFWETS
notes: also called prey DNA B
B6: prey clone No. 3-309: C-terminal 91 amino acids of the human c-Met β chain fused to GAL4-AD (other, not shown: large carriers)
chain: RRLLQPEYCPDPLYEVMLKCWHPKAEMRPSFSELVSRISAIFSTFIGEHYVHVNATYVNVKCVAPYPSLLSSEDNADDEVDTRPASFWETS
notes: also called human HGF receptor c-Met prey vector
B7: c-Met prey protein C (amino acids 1023-1083 of SEQ ID NO: 4) fused to GAL4-AD (other, not shown: large carriers)
chain: FSELVSRISAIFSTFIGEHYVHVNATYVNVKCVAPYPSLLSSEDNADDEVDTRPASFWETS
notes: also called prey DNA C
B8: c-Met prey protein A (amino acids 1003-1083 of SEQ ID NO: 4) fused to GAL4-AD (other, not shown: large carriers)
chain: DPLYEVMLKCWHPKAEMRPSFSELVSRISAIFSTFIGEHYVHVNATYVNVKCVAPYPSLLSSEDNADDEVDTRPASFWETS
notes: also called prey DNA A
B9: prey clone No. 2-211: C-terminal 56 amino acids of human MERMUC fused to GAL4-AD (other, not shown: large carriers)
chain: VSAGENGGFLLLRLSVASPEDLTDPRVAERLMQQLHRELHAHAPHFQVSLLRVRRG

What was measured:
[1] = target: B6; test: yeast two-hybrid
Description: (§1) Yeast AH109 strain was cotransfected with each of the bait vectors and the prey vector carrying human HGF receptor c-Met (DNA corresponding to the C-terminal 91 amino acids of the human c-Met; clone No. 3-309) identified in Example 1.
(§2) The binding ability of MERMUC bait protein derived from each of the bait vectors to the HGF receptor c-Met β chain was analyzed by the yeast two-hybrid system described above.

[2] = target: T1, human MERMUC bait-2 protein (C-terminal 123 amino acids of human MERMUC fused to GAL4-DB) (yeast; human); test: yeast two-hybrid (growth on SD/-Leu,-Trp,-His and SD/-Leu,-Trp,-Ade)
T1 construct: also called MERMUC bait protein; fusion protein A
Description: The binding activity between the c-Met prey proteins derived from the 7 DNA fragments and the MERMUC bait protein was analyzed by the yeast two-hybrid system described in Example 1. Specifically, the binding activity was evaluated based on the growth of yeast transformed with the vector on 2 kinds of yeast minimum media, i.e., (1) SD/-Leu, -Trp, -His media and (2) SD/-Leu, -Trp, -Ade media.

[3] = target: T1, human MERMUC bait-2 protein (C-terminal …); test: yeast two-hybrid screen of a human kidney cDNA library
Description: Specifically, yeast two hybrid system (Proc. Natl. Acad. Sci. USA., 1991, Vol.88, p.9578-9582) was performed to screen a human kidney cDNA library using cDNA corresponding to the C-terminal region of the human MERMUC as the bait (that is, fishing bait).
On the other hand, each cDNA of the human kidney derived cDNA library (CLONTECH) that is used for the screening with the bait vector is inserted in pADK vector (tryptophan biosynthesis gene as a marker). Therefore, proteins produced through the expression of each of these cDNAs in yeast are produced as a fusion protein ([fusion protein B]) with the GAL4 transcriptional activation region (GAL4-AD).

[4] = target: MERMUC bait protein C53 (amino acids 451-503 of SEQ ID NO: 10) fused to GAL4-DB (yeast; human, UniProt P04386 1-147); test: yeast two-hybrid
Description: as §1, §2

[5] = target: MERMUC bait protein C260 (amino acids 244-503 of SEQ ID NO: 10) fused to GAL4-DB (yeast; human, UniProt P04386 1-147); test: yeast two-hybrid
Description: as §1, §2

Binder | binding result [2] | binding result [3] | other results
B1 |  |  | binding result [1]: no binding
B2 | no binding |  | 
B3 |  | binds | 
B4 |  | binds | 
B5 | binds |  | 
B6 |  | binds | binding result [4]: binds; binding result [5]: binds
B7 | no binding |  | 
B8 | binds |  | 
B9 |  | binds | 
